From patent US20220088146A1, “Melanocortin Receptor-Specific Peptide Formulations and Methods for Gastrointestinal Tract-Specific Delivery” (Palatin Technologies, Inc., priority 2018, published 2022)
Bridge positions count the residues as written; N and C are the ends. Square brackets hold non-standard residues; d marks the D form. dPhe(3-Cl) = N[C@H](Cc1cccc(Cl)c1)C(=O)O; dPhe(4-Cl) = N[C@H](Cc1ccc(Cl)cc1)C(=O)O; dPhe(4-Me) = Cc1ccc(C[C@@H](N)C(=O)O)cc1; dPhe(2-Cl) = N[C@H](Cc1ccccc1Cl)C(=O)O; dPhe(4-F) = N[C@H](Cc1ccc(F)cc1)C(=O)O; dPhe(2-F) = N[C@H](Cc1ccccc1F)C(=O)O; Nle = CCCC[C@H](N)C(=O)O; Orn = NCCC[C@H](N)C(=O)O; Dab = NCC[C@H](N)C(=O)O

Experiments:
[1] = target: human melanocortin-1 receptor (human) (UniProt Q01726); experiment: [I125]-NDP-α-MSH competition, hMC1r HEK-293 membranes
Sequence of human melanocortin-1 receptor (human) (Q01726 whole entry): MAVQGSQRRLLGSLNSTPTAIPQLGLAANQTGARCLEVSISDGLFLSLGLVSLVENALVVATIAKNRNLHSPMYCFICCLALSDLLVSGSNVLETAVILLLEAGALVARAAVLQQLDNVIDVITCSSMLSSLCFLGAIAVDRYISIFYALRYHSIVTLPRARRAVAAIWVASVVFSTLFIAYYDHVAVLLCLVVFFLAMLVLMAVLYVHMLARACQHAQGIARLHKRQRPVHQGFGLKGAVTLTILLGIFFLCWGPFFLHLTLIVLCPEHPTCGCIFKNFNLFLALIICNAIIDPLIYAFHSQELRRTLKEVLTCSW

[2] = target: human melanocortin-1 receptor (human) (UniProt Q01726); experiment: cell-based or functional assay
[3] = target: human melanocortin-4 receptor (human) (UniProt P32245); experiment: [I125]-NDP-α-MSH competition, hMC4r HEK-293 membranes
Sequence of human melanocortin-4 receptor (human) (P32245 whole entry): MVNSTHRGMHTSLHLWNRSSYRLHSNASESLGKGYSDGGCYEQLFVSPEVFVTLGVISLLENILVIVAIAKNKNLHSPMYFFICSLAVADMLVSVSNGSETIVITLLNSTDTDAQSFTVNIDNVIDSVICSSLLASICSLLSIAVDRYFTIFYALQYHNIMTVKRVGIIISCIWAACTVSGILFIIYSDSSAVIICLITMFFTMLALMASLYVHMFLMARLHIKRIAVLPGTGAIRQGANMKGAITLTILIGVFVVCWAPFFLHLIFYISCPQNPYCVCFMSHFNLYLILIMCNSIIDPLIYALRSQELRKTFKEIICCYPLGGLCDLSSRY

[4] = target: human melanocortin-4 receptor (human) (UniProt P32245); experiment: cell-based or functional assay
melanocortin-2 receptor = melanocortin-2 receptor (UniProt Q01718); experiment: cell-based or functional assay
Sequence of melanocortin-2 receptor (Q01718 whole entry): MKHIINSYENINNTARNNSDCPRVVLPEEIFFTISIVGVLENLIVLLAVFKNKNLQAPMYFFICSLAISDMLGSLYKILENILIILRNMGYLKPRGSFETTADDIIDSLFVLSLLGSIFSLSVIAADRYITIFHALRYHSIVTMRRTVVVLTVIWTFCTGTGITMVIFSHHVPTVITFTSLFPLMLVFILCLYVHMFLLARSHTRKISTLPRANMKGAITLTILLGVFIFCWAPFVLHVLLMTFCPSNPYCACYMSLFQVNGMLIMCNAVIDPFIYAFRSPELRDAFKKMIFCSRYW

melanocortin-3 receptor = melanocortin-3 receptor (UniProt P41968); experiment: cell-based or functional assay
Sequence of melanocortin-3 receptor (P41968 whole entry): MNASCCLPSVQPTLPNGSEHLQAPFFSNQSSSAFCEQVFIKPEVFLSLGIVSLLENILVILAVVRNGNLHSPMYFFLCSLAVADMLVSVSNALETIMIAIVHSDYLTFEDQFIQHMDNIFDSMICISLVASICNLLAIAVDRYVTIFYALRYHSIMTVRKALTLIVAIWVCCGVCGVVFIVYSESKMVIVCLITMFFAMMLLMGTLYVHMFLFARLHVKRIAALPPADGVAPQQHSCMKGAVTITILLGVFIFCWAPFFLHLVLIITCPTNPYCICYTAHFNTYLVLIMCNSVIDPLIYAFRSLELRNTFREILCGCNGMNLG

melanocortin-5 receptor = melanocortin-5 receptor (UniProt P33032); experiment: cell-based or functional assay
Sequence of melanocortin-5 receptor (P33032 whole entry): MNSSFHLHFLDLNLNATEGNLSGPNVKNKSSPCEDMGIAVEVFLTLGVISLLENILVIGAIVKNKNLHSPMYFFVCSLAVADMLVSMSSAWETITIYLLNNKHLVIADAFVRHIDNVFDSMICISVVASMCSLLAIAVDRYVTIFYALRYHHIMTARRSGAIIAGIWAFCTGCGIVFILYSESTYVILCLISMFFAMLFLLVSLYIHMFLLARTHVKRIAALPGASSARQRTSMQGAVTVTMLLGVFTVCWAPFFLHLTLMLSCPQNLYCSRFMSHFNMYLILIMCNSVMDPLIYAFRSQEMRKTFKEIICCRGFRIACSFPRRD

Ki [1] | MC-1 EC50 (average; cAMP HBL) [2] | MC-1 Emax (average; cAMP HBL) [2] | Ki [3] | Substance | further results
7 nM | 0.32 nM | 85% | 10000 nM | Ac-[Nle]EH[dF]R[Dab]-NH2 (lactam 2-6) | MC-1 EC50 (average; cAM PHBL) [2]: 0.32 nM
– | – | 91% | 295 nM | Ac-Nle-cyclo(Glu-His-D-Phe-Arg-Orn)-Trp-NH2 (peptide) | –
– | – | 75% | 535 nM | Ac-D-Phe-cyclo(Glu-His-D-Phe-Arg-Dab)-Trp-NH2 (peptide) | –
0.05 nM | 0.008 nM | 108% | 98 nM | Ac-Nle-cyclo(Glu-Dab-D-Phe-Arg-Dab)-Trp-NH2 (peptide) | –
0.065 nM | 0.016 nM | 85% | 860 nM | Ac-Nle-cyclo(Dap-His-D-Phe-Arg-Dab)-Trp-NH2 (peptide) | –
– | – | 86% | 455 nM | Ac-Nle-cyclo(Glu-Ala-D-Phe-Arg-Dab)-Trp-NH2 (peptide) | –
2 nM | 0.12 nM | 99% | 10000 nM | Ac-Nle-cyclo(Glu-Orn-D-Phe(4-OMe)-Arg-Dab)-NH2 (peptide) | –
– | – | 91% | 510 nM | Ac-Nle-cyclo(Glu-His-D-Phe-Arg-Dap)-Trp-NH2 (peptide) | Functional - CEREP (EC50; nM) [4]: 510 nM
0.01 nM | – | 83% | 3 nM | Ac-Nle-cyclo(Glu-His-D-Phe-Arg-Dab)-Nal 2-NH2 (peptide) | MC-1 EC50 (average; cAM PHBL) [2]: 0.004 nM
2 nM | – | 79% | 10000 nM | Ac-Nle-cyclo(Glu-His-D-Phe-Arg-Dab)-Trp-OH (peptide) | –
20 nM | 1 nM | 102% | 10000 nM | Ac-[Nle]E[Orn][dPhe(4-F)]R[Dab]-NH2 (lactam 2-6) | –
0.45 nM | 0.065 nM | 97% | 98 nM | Ac-Nle-cyclo(Glu-Cit-D-Phe-Arg-Dab)-Trp-NH2 (peptide) | –
4 nM | 0.5 nM | 102% | 3620 nM | Ac-[Nle]E[Orn][dF]R[Dab]-NH2 (lactam 2-6) | –
18 nM | 0.8 nM | 95% | 10000 nM | Ac-[Nle]E[Orn][dPhe(2-F)]R[Dab]-NH2 (lactam 2-6) | –
1 nM | 0.107 nM | 81% | 4700 nM | Ac-Nle-cyclo(Glu-His-D-Phe-Arg-Dap)-Trp-OH (peptide) | –
10000 nM | – | 51% | 10000 nM | Ac-[Nle]EH[dF][Dab]-NH2 (lactam 2-5) | –
0.02 nM | 0.005 nM | 69% | 0.095 nM | Ac-Nle-cyclo(Glu-His-D-Phe-Arg-Dab)-D-Nal 2-NH2 (peptide) | –
– | – | 95% | 110 nM | Ac-Nle-cyclo(Glu-His-D-Phe-Arg-Dab)-Trp-NH2 (peptide) | –

Ki [1] | MC-1 EC50 (average; cAMP HBL) [2] | MC-1 Emax (average; cAMP HBL) [2] | Ki [3] | Substance | further results
2250 nM | – | – | 10000 nM | Ac-Nle-cyclo(Glu-Pro-D-Phe-Arg-Dab)-NH2 (peptide) | –
0.55 nM | 0.025 nM | 93% | 33 nM | Ac-Nle-cyclo(Glu-His-D-Phe-Arg-Dab)-D-Trp-NH2 (peptide) | –
0.015 nM | 0.009 nM | 92% | 380 nM | Ac-Nle-cyclo(Dab-His-D-Phe-Arg-Dab)-Trp-NH2 (peptide) | –
0.03 nM | 0.007 nM | 70% | 680 nM | Ac-Nle-cyclo(Dap-His-D-Phe-Arg-Dap)-Trp-NH2 (peptide) | –
30 nM | 1 nM | 88% | 10000 nM | Ac-[Nle]E[Orn][dPhe(2-Cl)]R[Dab]-NH2 (lactam 2-6) | –
0.1 nM | 0.008 nM | 73% | 2 nM | Ac-Nle-cyclo(Glu-His-D-Phe-Arg-Dab)-D-Nal 1-NH2 (peptide) | –
0.025 nM | 0.006 nM | 78% | 325 nM | Ac-Nle-cyclo(Dab-His-D-Phe-Arg-Dap)-Trp-NH2 (peptide) | –
0.005 nM | 0.002 nM | 72% | 0.75 nM | Ac-Nle-cyclo(Glu-His-D-Phe-Arg-Dab)-Nal 1-NH2 (peptide) | –
35 nM | 2 nM | 86% | 10000 nM | Ac-[Nle]E[Orn][dPhe(3-Cl)]R[Dab]-NH2 (lactam 2-6) | –
645 nM | 44 nM | 73% | 10000 nM | Ac-[Nle]EH[dF]A[Dab]-NH2 (lactam 2-6) | MC-1 EC50 (average; cAMPHBL) [2]: 44 nM
3 nM | 0.076 nM | 96% | 10000 nM | Ac-[Nle]E[Orn][dPhe(4-Me)]R[Dab]-NH2 (lactam 2-6) | –
– | – | – | – | ACTH (adrenocorticotropic hormone) (from UniProt P01189 138-176) (ligand) | Functional - CEREP (EC50; nM) (melanocortin-2 receptor): 4.8 nM; Functional - CEREP (EC50; nM) (melanocortin-3 receptor): 390 nM; Functional - CEREP (EC50; nM) [4]: 350 nM; Functional - CEREP (EC50; nM) [2]: 980 nM; Functional - CEREP (EC50; nM) (melanocortin-5 receptor): 4100 nM
– | – | 100% | 20 nM | Ac-Nle-cyclo(Glu-Arg-D-Phe-Arg-Dab)-Trp-NH2 (peptide) | –
40 nM | 1 nM | 97% | 10000 nM | Ac-Nle-cyclo(Glu-Orn-D-Phe(3,4-F)-Arg-Dab)-NH2 (peptide) | –
0.015 nM | 0.002 nM | 109% | 45 nM | Ac-Nle-cyclo(Glu-Orn-D-Phe-Arg-Dab)-Trp-NH2 (peptide) | –
– | – | 108% | 95 nM | Ac-Nle-cyclo(Glu-Lys-D-Phe-Arg-Dab)-Trp-NH2 (peptide) | –
2 nM | 0.1 nM | 100% | 1240 nM | Ac-[Nle]E[Orn][dPhe(4-Cl)]R[Dab]-NH2 (lactam 2-6) | –
